{
  "source": "paper PMC6474823",
  "about": "(Molecular cell, 2019)",
  "key": {"[1]": {"biological_target": "Src^CD WT (catalytic domain of Src, residues 261-536) (human, UniProt P12931 261-536)", "experiment": "pull-down"}, "[2]": {"biological_target": "Src^FL WT (full-length Src, residues 1-536, non-phosphorylated, lacking an N-terminal myristoyl group) (human, UniProt P12931 1-536)", "experiment": "pull-down"}},
  "data": [
    {"binder": "MGSNKSKPKDASQRRRSLLPETG (domain or fragment, human)", "note": "[SH4^SNAP WT (residues 1-18 of Src fused to the N-terminus of SNAP-tag through a LPETG linker)]", "values": [
      {"measurement": "binding result", "setting": "[1]", "value": "binds"},
      {"measurement": "binding result", "setting": "[2]", "value": "binds"}
    ]}
  ]
}
